Results on one molecule are retold here after patent US12168686 (CLOVER BIOPHARMACEUTICALS, dated 2024).

For orientation: koff means the rate constant with which the complex falls apart. One may read the kon as the rate constant with which the complex forms. Higher therefore signals fast association. By Kd is commonly meant the constant that tells how readily two partners part at equilibrium. Low values mean a tighter complex, high ones a looser complex.

For experiment [1], the target named is T1, soluble DR5-Fc fusion protein (UniProt O14763 56-182, limits assumed, biotin-labeled (sites not given)).
T1 construct: It was biotinylated and captured on streptavidin biosensors; also called DR5 (TRAIL-R2); biotinylated DR5-Fc; not shown: Fc part
Description: BLI (ForteBio Octet), biotin-labeled DR5-Fc on streptavidin sensors. The text has this:
(§1) Figure 7: FIG. 7 is the kinetic studies of TRAIL-Trimer, TRAIL-Fc and native TRAIL binding to the soluble DR5-Fc fusion protein assessed by biolayer interferometry measurements. The Super Streptavidin biosensor tips of the ForteBio Octet RED 96 were coated with biotinylated DR5-Fc. The biosensor tips were dipped in increasing concentrations gradient of TRAIL-Trimer, TRAIL-Fc and native TRAIL to measure their binding to DR5-Fc and subsequently moved to wells containing buffer (PBS) to measure dissociation rates. The dissociation constant Kd was shown for each graph. Figure 7: Figure 7:
(§2) Comparison of TRAIL-Trimer, TRAIL-Fc and Native TRAIL in Receptor Binding Avidity In Vitro DR5 (TRAIL-R2) is one of TRAIL's functional receptors which initiates extrinsic apoptosis pathway signaling upon activation; thus, we examined the binding kinetic profile of TRAIL-Trimer, TRAIL-Fc and native TRAIL to a soluble DR5-Fc fusion protein. With Fortebio biolayer interferometry measurement, the biotin-labeled DR5-Fc was first captured on Streptavidin (SA) sensors, and real-time binding curves were measured and plotted by applying the sensor in gradient concentrations (15.4 nM-123.5 nM) of the three analytes (FIG. 7).
In general terms: BLI is a label-free optical method that tracks binding on a fibre tip over time.

For experiment [2], the target named is T1, soluble DR5-Fc fusion protein. Description: biolayer interferometry (ForteBio Octet RED 96), biotinylated DR5-Fc captured on streptavidin biosensor tips, TRAIL-Trimer in solution at graded concentrations.
Source text: as §1, §2

T1 sequence (O14763 56-182 limits assumed): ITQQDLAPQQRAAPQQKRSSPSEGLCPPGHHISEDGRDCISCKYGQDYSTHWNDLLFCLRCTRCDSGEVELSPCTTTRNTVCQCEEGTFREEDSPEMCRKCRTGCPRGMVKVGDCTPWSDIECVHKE

B1: TRAIL-Trimer (mature human TRAIL fused to the C-propeptide of human alpha1(I) collagen, Trimer-Tag, with a mutated BMP-1 site) (ligand)
chain: VRERGPQRVAAHITGTRGRSNTLSSPNSKNEKALGRKINSWESSRSGHSFLSNLHLRNGELVIHEKGFYYIYSQTYFRFQEEIKENTKNDKQMVQYIYKYTSYPDPILLMKSARNSCWSKDAEYGLYSIYQGGIFELKENDRIFVSVTNEHLIDMDHEASFFGAFLVGGSNGLPGPIGPPGPRGRTGDAGPVGPPGPPGPPGPPGPPSAGFDFSFLPQPPQEKAHDGGRYYRANDANVVRDRDLEVDTTLKSLSQQIENIRSPEGSRKNPARTCRDLKMCHSDWKSGEYWIDPNQGCNLDAIKVFCNMETGETCVYPTQPSVAQKNWYISKNPKDKRHVWFGESMTDGFQFEYGGQGSDPADVAIQLTFLRLMSTEASQNITYHCKNSVAYMDQQTGNLKKALLLKGSNEIEIRAEGNSRFTYSVTVDGCTSHTGAWGKTVIEYKTTKSSRLPIIDVAPLDVGAPDQEFGFDVGPVCFL
notes: also called SCB-313; disulfide bond-linked trimeric TRAIL fusion protein
In experiment [1], B1 registered a koff below 1e-07 s⁻¹ and an association rate constant (kon) of 81000 M⁻¹ s⁻¹. In addition, the Kd in experiment [2] was below 1 pM.
